According to publication PMC3273809:
Like-named read-outs stand apart in the source and are kept apart here.

What was measured:
Assay in all cases: SPR
[1] = molecular target: T1, ClpA (Escherichia coli, UniProt P0ABH9 1-758)
T1 sequence: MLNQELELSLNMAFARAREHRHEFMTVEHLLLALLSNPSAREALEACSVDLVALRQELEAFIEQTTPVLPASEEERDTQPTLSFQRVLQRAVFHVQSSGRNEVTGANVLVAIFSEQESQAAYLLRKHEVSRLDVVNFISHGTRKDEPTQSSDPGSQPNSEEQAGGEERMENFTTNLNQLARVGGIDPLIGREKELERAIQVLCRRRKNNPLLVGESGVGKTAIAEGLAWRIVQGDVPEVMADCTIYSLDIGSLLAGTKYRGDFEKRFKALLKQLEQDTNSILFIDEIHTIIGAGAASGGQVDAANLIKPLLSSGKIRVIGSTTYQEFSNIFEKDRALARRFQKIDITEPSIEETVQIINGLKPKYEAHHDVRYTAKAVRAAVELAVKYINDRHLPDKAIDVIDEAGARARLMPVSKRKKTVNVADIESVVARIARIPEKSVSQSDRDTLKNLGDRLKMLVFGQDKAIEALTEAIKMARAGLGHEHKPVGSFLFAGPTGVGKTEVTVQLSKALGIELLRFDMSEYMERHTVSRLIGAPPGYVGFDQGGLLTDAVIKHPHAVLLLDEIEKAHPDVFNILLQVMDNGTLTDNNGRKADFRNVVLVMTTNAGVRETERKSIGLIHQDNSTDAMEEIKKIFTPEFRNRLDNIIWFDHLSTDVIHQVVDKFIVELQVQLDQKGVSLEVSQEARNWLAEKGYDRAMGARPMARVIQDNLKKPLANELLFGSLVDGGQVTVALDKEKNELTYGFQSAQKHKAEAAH

[2] = molecular target: T2, Lon (Escherichia coli, UniProt P0A9M0 1-784)
[3] = molecular target: Lon;TrfA P151S/G254D/S267L (Escherichia coli;plasmid RK2, UniProt P0A9M0;P07676 1-784;98-382, |P151S;G254D;S267L)
[4] = molecular target: T2, Lon; remark: listed apart in the source
[5] = molecular target: T3, TrfA G254D/S267L (plasmid RK2, UniProt P07676 98-382, G254D;S267L)
T3 sequence: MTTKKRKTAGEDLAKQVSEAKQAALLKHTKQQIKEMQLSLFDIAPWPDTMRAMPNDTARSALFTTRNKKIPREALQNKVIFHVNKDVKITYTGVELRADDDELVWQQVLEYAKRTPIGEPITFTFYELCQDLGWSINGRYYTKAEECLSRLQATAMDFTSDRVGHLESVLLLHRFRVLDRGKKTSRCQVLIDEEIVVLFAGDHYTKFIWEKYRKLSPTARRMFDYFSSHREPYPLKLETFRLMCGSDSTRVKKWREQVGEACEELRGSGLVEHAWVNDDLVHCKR

[6] = molecular target: T4, TrfA wt (His6-TrfA-33) (plasmid RK2, UniProt P07676 98-382)
T4 sequence: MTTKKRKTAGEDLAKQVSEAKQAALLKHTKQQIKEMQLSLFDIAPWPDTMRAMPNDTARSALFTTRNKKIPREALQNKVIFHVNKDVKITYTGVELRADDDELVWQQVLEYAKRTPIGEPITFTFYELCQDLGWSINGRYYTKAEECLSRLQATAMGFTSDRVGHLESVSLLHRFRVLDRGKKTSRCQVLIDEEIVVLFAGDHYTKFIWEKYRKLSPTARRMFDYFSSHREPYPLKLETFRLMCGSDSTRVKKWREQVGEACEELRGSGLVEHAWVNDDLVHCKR

Measured: binding result

B1: frag2 (pUC19 fragment, 129 bp) (dsDNA)
DNA 1: AGCTCACAATTCCACACAACATACGAGCCGGAAGCATAAAGTGTAAAGCCTGGGGTGCCTAATGAGTGAGCTAACTCACATTAATTGCGTTGCGCTCACTGCCCGCTTTCCAGTCGGGAAACCTGTCGT
DNA 2: ACGACAGGTTTCCCGACTGGAAAGCGGGCAGTGAGCGCAACGCAATTAATGTGAGTTAGCTCACTCATTAGGCACCCCAGGCTTTACACTTTATGCTTCCGGCTCGTATGTTGTGTGGAATTGTGAGCT
binds: [1] | [2] | [3]

B2: frag1 (five RK2 oriV iterons, 129 bp) (dsDNA)
DNA 1: CCTGCGGTATTGACACTTGAGGGGCGCGACTACTGACAGATGAGGGGCGCGATCCTTGACACTTGAGGGGCAGAGTGATGACAGATGAGGGGCGCACCTATTGACATTTGAGGGGCTGTCCACAGGCAG
DNA 2: CTGCCTGTGGACAGCCCCTCAAATGTCAATAGGTGCGCCCCTCATCTGTCATCACTCTGCCCCTCAAGTGTCAAGGATCGCGCCCCTCATCTGTCAGTAGTCGCGCCCCTCAAGTGTCAATACCGCAGG
binds: [1] | [4] | [5] | [6]
